Experimental findings from paper PMC7229824 (Nucleic Acids Research, 2020) are described below.

In this experiment the target is GST-PCAF (human, UniProt Q92831 1-832). Briefly: pull-down.
Sequence of GST-PCAF (Q92831 whole entry): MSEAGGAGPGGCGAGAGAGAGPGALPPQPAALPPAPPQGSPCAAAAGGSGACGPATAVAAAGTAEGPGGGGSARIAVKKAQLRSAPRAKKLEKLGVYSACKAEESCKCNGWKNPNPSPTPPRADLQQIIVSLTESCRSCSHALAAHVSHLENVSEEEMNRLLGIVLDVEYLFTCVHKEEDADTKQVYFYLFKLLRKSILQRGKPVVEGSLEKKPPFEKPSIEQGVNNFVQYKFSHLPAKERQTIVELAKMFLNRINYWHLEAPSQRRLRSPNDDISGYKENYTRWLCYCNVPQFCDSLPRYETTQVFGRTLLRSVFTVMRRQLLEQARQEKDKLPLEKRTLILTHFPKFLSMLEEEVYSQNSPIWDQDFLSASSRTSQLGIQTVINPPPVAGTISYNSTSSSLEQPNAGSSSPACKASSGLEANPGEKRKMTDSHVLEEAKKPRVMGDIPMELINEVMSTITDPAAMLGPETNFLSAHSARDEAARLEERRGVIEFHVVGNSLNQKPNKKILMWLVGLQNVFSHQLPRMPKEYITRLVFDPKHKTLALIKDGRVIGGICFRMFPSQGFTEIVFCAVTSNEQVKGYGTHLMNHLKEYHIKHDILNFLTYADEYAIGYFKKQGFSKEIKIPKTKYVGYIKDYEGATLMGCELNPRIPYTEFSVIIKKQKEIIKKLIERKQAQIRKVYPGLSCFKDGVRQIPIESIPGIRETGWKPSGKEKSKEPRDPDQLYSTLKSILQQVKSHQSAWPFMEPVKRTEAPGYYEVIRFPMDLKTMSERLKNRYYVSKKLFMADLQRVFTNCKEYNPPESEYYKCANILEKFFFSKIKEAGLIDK

B1: His-HMGA2 (natural protein)
chain: MSARGEGAGQPSTSAQGQPAAPAPQKRGRGRPRKQQQEPTGEPSPKRPRGRPKGSKNKSPSKAAQKKAEATGEKRPRGRPRKWPQQVVQKKPAQEETEETSSQESAEED
Turning to B1, the binding result is listed as “binds”.
